The text below walks through data of publication PMC2169334.

In this test the target is ankyrin-B (UniProt Q01484).
Sequence of UniProt Q01484 (Q01484 whole entry): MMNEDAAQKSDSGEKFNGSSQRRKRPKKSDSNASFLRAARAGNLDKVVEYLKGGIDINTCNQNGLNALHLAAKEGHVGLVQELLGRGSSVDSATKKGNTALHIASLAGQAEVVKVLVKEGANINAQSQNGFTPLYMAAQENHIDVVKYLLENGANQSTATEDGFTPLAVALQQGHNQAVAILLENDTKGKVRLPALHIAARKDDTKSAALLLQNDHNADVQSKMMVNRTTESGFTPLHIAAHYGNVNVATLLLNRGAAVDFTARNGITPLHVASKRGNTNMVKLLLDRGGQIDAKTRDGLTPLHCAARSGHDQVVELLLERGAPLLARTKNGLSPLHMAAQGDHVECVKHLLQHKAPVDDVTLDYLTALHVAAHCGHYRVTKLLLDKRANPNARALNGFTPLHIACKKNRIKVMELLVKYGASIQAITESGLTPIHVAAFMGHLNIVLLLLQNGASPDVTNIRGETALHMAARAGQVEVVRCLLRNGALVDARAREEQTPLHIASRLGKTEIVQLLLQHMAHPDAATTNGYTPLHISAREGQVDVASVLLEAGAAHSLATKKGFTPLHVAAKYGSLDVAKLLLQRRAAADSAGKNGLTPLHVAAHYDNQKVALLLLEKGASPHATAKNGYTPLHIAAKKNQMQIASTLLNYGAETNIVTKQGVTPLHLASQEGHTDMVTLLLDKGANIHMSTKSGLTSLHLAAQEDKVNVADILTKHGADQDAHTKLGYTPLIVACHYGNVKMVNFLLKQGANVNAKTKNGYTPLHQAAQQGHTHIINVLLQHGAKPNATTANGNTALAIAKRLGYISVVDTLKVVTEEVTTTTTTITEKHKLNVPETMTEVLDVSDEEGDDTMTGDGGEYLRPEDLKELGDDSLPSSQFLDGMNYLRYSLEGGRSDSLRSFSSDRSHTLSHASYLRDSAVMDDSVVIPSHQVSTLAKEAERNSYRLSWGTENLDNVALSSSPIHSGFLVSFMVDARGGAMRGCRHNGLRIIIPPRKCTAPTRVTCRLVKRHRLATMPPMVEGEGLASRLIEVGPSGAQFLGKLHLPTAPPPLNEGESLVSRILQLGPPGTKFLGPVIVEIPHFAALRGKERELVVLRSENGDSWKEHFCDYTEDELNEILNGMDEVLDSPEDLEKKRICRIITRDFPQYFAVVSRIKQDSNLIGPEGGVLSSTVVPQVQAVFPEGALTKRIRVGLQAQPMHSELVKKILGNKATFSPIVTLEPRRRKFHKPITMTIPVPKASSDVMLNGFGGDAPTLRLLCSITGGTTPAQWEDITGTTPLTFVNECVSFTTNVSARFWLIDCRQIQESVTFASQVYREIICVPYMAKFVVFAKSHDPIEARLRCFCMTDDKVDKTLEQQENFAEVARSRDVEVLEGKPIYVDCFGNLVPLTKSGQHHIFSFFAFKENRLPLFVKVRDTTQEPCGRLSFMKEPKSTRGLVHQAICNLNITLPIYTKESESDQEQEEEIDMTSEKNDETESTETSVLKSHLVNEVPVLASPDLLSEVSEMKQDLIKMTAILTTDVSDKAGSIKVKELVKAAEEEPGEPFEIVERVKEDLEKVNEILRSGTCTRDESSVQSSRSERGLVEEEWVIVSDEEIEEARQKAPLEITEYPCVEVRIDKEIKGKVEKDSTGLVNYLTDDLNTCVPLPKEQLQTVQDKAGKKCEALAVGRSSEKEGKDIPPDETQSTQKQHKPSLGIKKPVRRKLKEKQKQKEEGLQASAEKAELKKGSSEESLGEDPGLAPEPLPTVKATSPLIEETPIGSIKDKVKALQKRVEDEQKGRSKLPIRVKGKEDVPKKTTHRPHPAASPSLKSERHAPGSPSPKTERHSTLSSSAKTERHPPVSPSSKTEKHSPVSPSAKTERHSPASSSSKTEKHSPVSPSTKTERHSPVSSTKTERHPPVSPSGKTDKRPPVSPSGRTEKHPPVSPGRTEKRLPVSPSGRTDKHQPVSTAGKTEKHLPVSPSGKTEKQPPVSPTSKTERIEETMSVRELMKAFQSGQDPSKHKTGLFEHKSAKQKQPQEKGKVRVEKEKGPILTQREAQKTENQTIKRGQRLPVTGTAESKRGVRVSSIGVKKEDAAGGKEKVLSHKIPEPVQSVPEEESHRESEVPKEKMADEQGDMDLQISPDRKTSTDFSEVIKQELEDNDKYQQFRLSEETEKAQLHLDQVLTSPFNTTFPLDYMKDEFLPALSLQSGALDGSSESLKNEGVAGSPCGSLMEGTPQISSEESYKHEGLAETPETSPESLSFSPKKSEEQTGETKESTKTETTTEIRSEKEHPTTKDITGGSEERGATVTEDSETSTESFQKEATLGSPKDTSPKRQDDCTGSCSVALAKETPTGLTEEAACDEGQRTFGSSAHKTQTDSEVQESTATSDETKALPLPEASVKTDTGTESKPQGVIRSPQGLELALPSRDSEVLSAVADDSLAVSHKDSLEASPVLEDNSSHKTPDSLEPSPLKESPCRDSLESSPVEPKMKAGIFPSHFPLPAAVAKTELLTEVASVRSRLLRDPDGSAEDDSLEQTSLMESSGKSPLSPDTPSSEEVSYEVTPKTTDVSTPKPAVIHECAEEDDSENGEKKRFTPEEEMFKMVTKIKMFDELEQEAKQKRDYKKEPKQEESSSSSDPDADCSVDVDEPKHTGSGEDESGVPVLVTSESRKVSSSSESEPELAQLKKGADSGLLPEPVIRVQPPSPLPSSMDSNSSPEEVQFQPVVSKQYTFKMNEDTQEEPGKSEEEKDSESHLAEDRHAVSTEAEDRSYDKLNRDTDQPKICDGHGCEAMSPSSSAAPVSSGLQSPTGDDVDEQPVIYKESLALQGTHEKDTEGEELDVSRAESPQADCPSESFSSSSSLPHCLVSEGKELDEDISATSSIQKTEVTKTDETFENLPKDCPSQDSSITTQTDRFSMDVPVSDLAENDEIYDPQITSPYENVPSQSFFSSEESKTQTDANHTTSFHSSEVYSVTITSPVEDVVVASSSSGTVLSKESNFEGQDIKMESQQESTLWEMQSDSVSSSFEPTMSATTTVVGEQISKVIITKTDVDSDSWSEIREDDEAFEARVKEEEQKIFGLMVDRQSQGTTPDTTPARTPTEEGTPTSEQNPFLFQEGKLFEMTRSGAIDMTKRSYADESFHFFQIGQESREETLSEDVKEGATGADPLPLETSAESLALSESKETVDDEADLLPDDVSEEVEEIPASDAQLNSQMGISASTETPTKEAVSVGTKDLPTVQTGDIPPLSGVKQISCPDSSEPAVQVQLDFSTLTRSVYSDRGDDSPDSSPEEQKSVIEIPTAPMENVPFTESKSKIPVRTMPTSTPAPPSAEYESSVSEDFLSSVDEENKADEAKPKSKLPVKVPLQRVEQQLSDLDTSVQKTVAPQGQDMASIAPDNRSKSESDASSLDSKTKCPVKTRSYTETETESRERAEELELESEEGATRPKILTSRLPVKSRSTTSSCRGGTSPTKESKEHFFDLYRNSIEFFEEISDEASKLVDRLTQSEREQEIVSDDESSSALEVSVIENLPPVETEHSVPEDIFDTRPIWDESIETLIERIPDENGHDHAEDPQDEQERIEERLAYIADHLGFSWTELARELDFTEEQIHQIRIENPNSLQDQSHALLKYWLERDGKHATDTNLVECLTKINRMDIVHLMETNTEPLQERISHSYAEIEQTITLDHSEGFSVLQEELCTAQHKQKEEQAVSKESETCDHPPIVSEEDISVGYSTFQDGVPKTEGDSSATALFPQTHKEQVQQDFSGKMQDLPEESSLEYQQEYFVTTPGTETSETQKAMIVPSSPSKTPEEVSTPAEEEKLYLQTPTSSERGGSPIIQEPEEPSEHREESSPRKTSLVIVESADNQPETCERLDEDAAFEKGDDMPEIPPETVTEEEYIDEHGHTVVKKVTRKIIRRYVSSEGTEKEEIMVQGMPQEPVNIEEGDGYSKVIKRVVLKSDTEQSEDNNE

What is called Kd is the constant that tells how readily two partners part at equilibrium. Higher therefore signals weaker binding. Take “IP3 receptor (from UniProt P29994 1-2750)”: the dissociation constant (Kd) worked out at 200 nM.
